Measurements from IntAct's records for PubMed 20588253.

B1: Mitogen-activated protein kinase kinase kinase 2 (Homo sapiens), Q9Y2U5 (parent)
chain: MDDQQALNSIMQDLAVLHKASRPALSLQETRKAKSSSPKKQNDVRVKFEHRGEKRILQFPRPVKLEDLRSKAKIAFGQSMDLHYTNNELVIPLTTQDDLDKAVELLDRSIHMKSLKILLVINGSTQATNLEPLPSLEDLDNTVFGAERKKRLSIIGPTSRDRSSPPPGYIPDELHQVARNGSFTSINSEGEFIPESMDQMLDPLSLSSPENSGSGSCPSLDSPLDGESYPKSRMPRAQSYPDNHQEFSDYDNPIFEKFGKGGTYPRRYHVSYHHQEYNDGRKTFPRARRTQGTSLRSPVSFSPTDHSLSTSSGSSIFTPEYDDSRIRRRGSDIDNPTLTVMDISPPSRSPRAPTNWRLGKLLGQGAFGRVYLCYDVDTGRELAVKQVQFDPDSPETSKEVNALECEIQLLKNLLHERIVQYYGCLRDPQEKTLSIFMEYMPGGSIKDQLKAYGALTENVTRKYTRQILEGVHYLHSNMIVHRDIKGANILRDSTGNVKLGDFGASKRLQTICLSGTGMKSVTGTPYWMSPEVISGEGYGRKADIWSVACTVVEMLTEKPPWAEFEAMAAIFKIATQPTNPKLPPHVSDYTRDFLKRIFVEAKLRPSADELLRHMFVHYH

Variants of: B1
Conditions: with chip_human STUB1, Q9UNE7
Chain of chip_human STUB1, Q9UNE7 (Q9UNE7 whole entry): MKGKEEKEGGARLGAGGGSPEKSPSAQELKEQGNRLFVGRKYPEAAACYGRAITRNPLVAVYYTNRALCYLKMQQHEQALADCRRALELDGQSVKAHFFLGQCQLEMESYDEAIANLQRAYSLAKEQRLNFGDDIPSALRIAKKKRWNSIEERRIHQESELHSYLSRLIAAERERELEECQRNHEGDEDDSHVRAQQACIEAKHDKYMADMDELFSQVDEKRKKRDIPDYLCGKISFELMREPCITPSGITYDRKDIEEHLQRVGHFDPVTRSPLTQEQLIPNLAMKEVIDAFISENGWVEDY

| Variant | effect of a mutation on the interaction |
| --- | --- |
| K385M | disrupting interaction |

Variants of: B1
Conditions: with chip_human STUB1, Q9UNE7
Remark: another data set of the same source

| Variant | effect of a mutation on the interaction |
| --- | --- |
| K385M | increasing interaction |

Variants of: B1
Conditions: with ubc_human UBC

| Variant | effect of a mutation on the interaction |
| --- | --- |
| K385M | disrupting interaction |
